Measured values as given in patent US6506592B1, “Hyperthermophilic alpha-glucosidase gene and its use” (Board of Regents of the University of Nebraska, priority 1998, dated 2003).

B1: Beta-glycosidase: S. solfataricus beta-glycosidase (lacS) converting beta-linked disaccharides into glucose, expressed in transgenic tobacco (protein)
chain: MYSFPNSFRFGWSQAGFQSEMGTPGSEDPNTDWYKWVHDPENMAAGLVSGDLPENGPGYWGNYKTFHDNAQKMGLKIARLNVEWSRIFPNPLPRPQNFDESKQDVTEVEINENELKRLDEYANKDALNHYREIFKDLKSRGLYFILNMYHWPLPLWLHDPIRVRRGDFTGPSGWLSTRTVYEFARFSAYIAWKFDDLVDEYSTMNEPNVVGGLGYVGVKSGFPPGYLSFELSRRAMYNIIQAHARAYDGIKSVSKKPVGIIYANSSFQPLTDKDMEAVEMAENDNRWWFFDAIIRGEITRGNEKIVRDDLKGRLDWIGVNYYTRTVVKRTEKGYVSLGGYGHGCERNSVSLAGLPTSDFGWEFFPEGLYDVLTKYWNRYHLYMYVTENGIADDADYQRPYYLVSHVYQVHRAINSGADVRGYLHWSLADNYEWASGFSMRFGLLKVDYNTKRLYWRPSALVYREIATNGAITDEIEHLNSVPPVKPLRH
B2: recombinant alpha-glucosidase: thermostable alpha-glucosidase of Sulfolobus solfataricus encoded by malA (SEQ ID NO:2), expressed recombinantly in E. coli or transgenic tobacco (protein, listed as Sulfolobus solfataricus)
chain: MQTIKIYENKGVYKVVIGEPFPPIEFPLEQKISSNKSLSELGLTIVQQGNKVIVEKSLDLKEHIIGLGEKAFELDRKRKRYVMYNVDAGAYKKYQDPLYVSIPLFISVKDGVATGYFFNSASKVIFDVGLEEYDKVIVTIPEDSVEFYVIEGPRIEDVLEKYTELTGKPFLPPMWAFGYMISRYSYYPQDKVVELVDIMQKEGFRVAGVFLDIHYMDSYKLFTWHPYRFPEPKKLIDELHKRNVKLITIVDHGIRVDQNYSPFLSGMGKFCEIESGELFVGKMWPGTTVYPDFFREDTREWWAGLISEWLSQGVDGIWLDMNEPTDFSRAIEIRDVLSSLPVQFRDDRLVTTFPDNVVHYLRGKRVKHEKVRNAYPLYEAMATFKGFRTSHRNEIFILSRAGYAGIQRYAFIWTGDNTPSWDDLKLQLQLVLGLSISGVPFVGCDIGGFQGRNFAEIDNSMDLLVKYYALALFFPFYRSHKATDGIDTEPVFLPDYYKEKVKEIVELRYKFLPYIYSLALEASEKGHPVIRPLFYEFQDDDDMYRIEDEYMVGKYLLYAPIVSKEESRLVTLPRGKWYNYWNGEIINGKSVVKSTHELPIYLREGSIIPLEGDELIVYGETSFKRYDNAEITSSSNEIKFSREIYVSKLTITSEKPVSKIIVDDSKEIQVEKTMQNTYVAKINQKIRGKINLE

Assays:
[1] = glucose release by transgenic plant protein extracts at 80° C.; type: biochemical; conditions: transgenic plant protein extract, incubation at 80° C.
Protocol: (§1) FIGS. 7A and B show the release of glucose by transgenic glycosyl hydrolases from exogenous and endogenous plant carbohydrates. FIG. 7A. Glucose released by the alpha-glucosidase using an exogenous soluble starch as substrate. A 5% (w/v) solution of soluble starch was incubated at 80° C. with no additions (closed circles), with a protein extract from a plant transformed with an empty vector (open circles) and with a protein extract from transformant MI52E containing the alpha-glucosidase (closed squares). FIG. 7B. Glucose released by glycosyl hydrolases using an endogenous polysaccharide-enriched plant extract as substrate. Protein extracts were: beta-glycosidase (closed squares), alpha-glucosidase (closed circles), and empty vector transformed plant (labeled). Glucose levels were determined using the glucose oxidase assay.
Conversion of plant polysaccharide into free sugar is conventionally done by addition of purified or semipurified hydrolytic enzymes. […] Protein extracts of the alpha-glucosidase transgenic plant MI52E, were prepared and combined with soluble starch. Plant leaves were harvested in the late afternoon, ground in liquid nitrogen with a mortar and pestle in 100 mM phosphate buffer at pH 7.0. […] No significant glucose was detected in reactions containing protein extracts from plants transformed with empty vector and added starch or in reactions containing starch alone. […]

[2] = glucose release from endogenous polysaccharide-enriched tobacco extract at 80° C.; type: biochemical, Nicotiana tabacum; conditions: transgenic protein extract plus polysaccharide-enriched tobacco extract, terminated after 160 hr
Protocol: as §1
To obtain tobacco leaf extract for assays, approximately […] of tobacco (five 1.1 cm diameter disk punches) leaves were harvested, rinsed with distilled water, midribs removed and weighed. Leaves were then ground to a powder in liquid nitrogen and ground again with a sterilized pestle. […] Glucose released by glycosyl hydrolase action on endogenous plant carbohydrates was measured using the Glucose Oxidase Assay (Sigma).
Levels of liberated glucose were determined as a function of incubation time at 80° C. […]

[3] = beta-glycosidase activity in tobacco leaf extract (beta-PNPG hydrolysis); type: biochemical
Protocol: To obtain tobacco leaf extract for assays, approximately […] of tobacco (five 1.1 cm diameter disk punches) leaves were harvested, rinsed with distilled water, midribs removed and weighed. Leaves were then ground to a powder in liquid nitrogen and ground again with a sterilized pestle. The extracts were then clarified by centrifugation at 14,000 rpm for 10 minutes at room temperature. The resulting supernatant was heat treated for 1 hour at 85° C. and clarified by spinning at 14,000 rpm for 10 minutes at room temperature. The supernatant was collected and assayed for alpha-glucosidase or beta-glycosidase enzyme activity by measuring the hydrolysis of p-nitrophenyl-alpha-glucopyranoside (alpha-PNPG) and p-nitrophenyl-beta-D-glucopyranoside (beta-PNPG), respectively, as previously described (Rolfsmeier, et al., 1998; Haseltine, et al., 1999(a)). Plant tissue extracts for studies on hydrolysis of added defined substrates were prepared using 100 g of tobacco leaves were harvested and grinded to a fine powder in liquid nitrogen. The leaf powder was resuspended in 500 ml of 10 mM tris-Cl pH7.0 to which 10 mM beta-mercaptoethanol has been added. The suspension was then homogenized in a Waring blender. The resulting extract was centrifuged at 5,000 rpm for 30 minutes at 4° C. and the supernatant was further clarified by filtering through three layers of cheesecloth. […] Glucose released by glycosyl hydrolase action on endogenous plant carbohydrates was measured using the Glucose Oxidase Assay (Sigma).
Glucosyl hydrolase levels were determined in primary plant transformants using clarified leaf extracts incubated at 80° C. […] Activity was measured on fully expanded leaves of plants that had grown in soil for 76 to 164 days. Levels of the beta-glycosidase in young primary transformants was determined in twenty-three independent events. […]
It has been determined that glycosyl hydrolases retain significant activity in fully mature and preserved leaf tissue. […]

[4] = recalcitrance to denaturation in denaturing SDS-PAGE; type: physicochemical; conditions: boiling in 2% (wt/vol) SDS for 10 minutes
Source text: (§2) Purification of the recombinant enzyme to apparent homogeneity employed heat fractionation of clarified cell sonicates followed by anion-exchange fast protein liquid chromatography and gel filtration fast protein liquid chromatography as described by Rolfsmeier, et al., 1995. […] Complete denaturation of the recombinant alpha-glucosidase required additional treatment with 6 M guanidine hydrochloride, resulting in exclusive formation of the 80-kDa monomer. Assays for alpha-glucosidase activity with p-nitrophenyl-α-D-glucopyranoside were performed as described by Rolfsmeier, et al., 1995. In enzymatic assays for hydrolysis of maltose and glycogen, release of glucose was monitored with a glucose oxidase assay kit (Sigma) as described by Rolfsmeier, et al., 1995.

[5] = maltose hydrolysis, glucose oxidase assay; type: biochemical; conditions: FIG. 4A
Source text: as §2
(Rolfsmeier et al., 1995).

[6] = hydrolysis of p-nitrophenyl-α-D-glucopyranoside by purified recombinant enzyme; type: biochemical; conditions: 85° C., purified recombinant enzyme from E. coli
Protocol: The production of the recombinant enzymes of this invention were conducted by over expression in E. coli. Assays for alpha-glucosidase activity were performed with para-nitrophenyl-alpha-D-glucopyranoside or methylumbelliferyl-alpha-D-glucoside. Assays for hydrolysis of substrate and detection of glucose were monitored by means known in the art. Purification of the recombinant enzyme to apparent homogeneity employed heat fractionation of clarified cell sonicates followed by anion-exchange fast protein liquid chromatography and gel filtration fast protein liquid chromatography as described in Rolfsmeier, et al.,1995.
Purification of the recombinant enzyme to apparent homogeneity employed heat fractionation of clarified cell sonicates followed by anion-exchange fast protein liquid chromatography and gel filtration fast protein liquid chromatography as described by Rolfsmeier, et al., 1995. […] Complete denaturation of the recombinant alpha-glucosidase required additional treatment with 6 M guanidine hydrochloride, resulting in exclusive formation of the 80-kDa monomer. Assays for alpha-glucosidase activity with p-nitrophenyl-α-D-glucopyranoside were performed as described by Rolfsmeier, et al., 1995. In enzymatic assays for hydrolysis of maltose and glycogen, release of glucose was monitored with a glucose oxidase assay kit (Sigma) as described by Rolfsmeier, et al., 1995. […]

[7] = alpha-glucosidase activity in tobacco leaf extract (alpha-PNPG hydrolysis); type: biochemical
Protocol: To obtain tobacco leaf extract for assays, approximately […] of tobacco (five 1.1 cm diameter disk punches) leaves were harvested, rinsed with distilled water, midribs removed and weighed. Leaves were then ground to a powder in liquid nitrogen and ground again with a sterilized pestle. The extracts were then clarified by centrifugation at 14,000 rpm for 10 minutes at room temperature. The resulting supernatant was heat treated for 1 hour at 85° C. and clarified by spinning at 14,000 rpm for 10 minutes at room temperature. The supernatant was collected and assayed for alpha-glucosidase or beta-glycosidase enzyme activity by measuring the hydrolysis of p-nitrophenyl-alpha-glucopyranoside (alpha-PNPG) and p-nitrophenyl-beta-D-glucopyranoside (beta-PNPG), respectively, as previously described (Rolfsmeier, et al., 1998; Haseltine, et al., 1999(a)). Plant tissue extracts for studies on hydrolysis of added defined substrates were prepared using 100 g of tobacco leaves were harvested and grinded to a fine powder in liquid nitrogen. The leaf powder was resuspended in 500 ml of 10 mM tris-Cl pH7.0 to which 10 mM beta-mercaptoethanol has been added. The suspension was then homogenized in a Waring blender. The resulting extract was centrifuged at 5,000 rpm for 30 minutes at 4° C. and the supernatant was further clarified by filtering through three layers of cheesecloth. Plant extracts used for studies on hydrolysis of endogenous polysaccharides as sources of transgenic proteins were prepared using one leaf (medium to large) for each plant which was harvested and ground to a fine powder in liquid nitrogen. The ground leaves were resuspended in 2 volumes of 100 mM sodium phosphate pH 7.0 with 10 mM beta-mercaptoethanol and the tissue was further homogenized in a Waring blender. The resulting extracts were then incubated at 80° C. to activate the recombinant alpha-glucosidase and beta-glycosidase for 48 hours. After incubation, the extracts were clarified by centrifugation by 12,500 rpm for 10 minutes 4° C. Glucose released by glycosyl hydrolase action on endogenous plant carbohydrates was measured using the Glucose Oxidase Assay (Sigma).
Glucosyl hydrolase levels were determined in primary plant transformants using clarified leaf extracts incubated at 80° C. Plants transformed with empty vector lacked detectable thermostable glycosyl hydrolase activity. Activity was measured on fully expanded leaves of plants that had grown in soil for 76 to 164 days. Levels of the beta-glycosidase in young primary transformants was determined in twenty-three independent events. Enzyme levels in ten representative isolates ranged over 12-fold with maximum values of 29 μmoles PNP/min/mg of protein (FIG. 5B).
It has been determined that glycosyl hydrolases retain significant activity in fully mature and preserved leaf tissue. Glycosyl hydrolase specific activities in plant tissues were compared, after freezing or drying, to levels in fresh tissue samples (Table 2). Significant beta-glycosidase activity was retained in leaves harvested and held at −80° C. for 5 days.

[8] = glycogen hydrolysis, glucose oxidase assay; type: biochemical
Source text: as §2
Alpha-glucosidases of mammalian origin are generally distinguished from those of higher plants and eubacteria by their affinities for glycogen as a substrate.

[9] = conversion of added starch to glucose by concentrated malA tobacco extract at 85° C.; type: biochemical; conditions: 5% starch, extract pre-treated one hour at 85° C., 16 hours
Protocol: Precipitation of tobacco leaf proteins with (NH4)2 SO4 achieved a 3-fold concentration of the recombinant alpha-glucosidase with a recovery of 100%. Endogenous plant glycolytic activities were eliminated prior to malA assays by heat inactivation (1 hr, […]). Background due to endogenous glucose was removed by dialysis. […] In an attempt to remove this background, concentrated empty vector control extract was pre-incubated for one hour at 85° C., clarified by microcentrifugation and then incubated for 0 or 14 hour at 85° C. in the presence or absence of 5% starch. Without preincubation, background in the presence of starch was very high, at both 0 and at 14 hours, corresponding to 17.8 to 19.2 micrograms of glucose per 100 microliters of assay. Background in the absence of starch was much lower, but apparently more time-dependent, rising from 0.9 to 1.6 micrograms of glucose per 100 microliters in 14 hours (FIG. 7). When the extract was pre-heated before assay, the background in the absence of starch was unchanged, but the background in the presence of starch was then at the same level as the background in the absence of starch without pre-heating (FIG. 7). […]
For measurements of glycosyl hydrolase activities on glucose polymers. […] Aliquots of 100 ul were removed at four hour intervals and glucose was detected with a glucose oxidase glucose detection kit from Sigma.

[10] = Dried transgenic tobacco leaf tissue
[11] = Fresh transgenic tobacco leaf tissue

Row | Molecule | rate of appearance of glucose [1] [µg/h] | initial lag before levels of glucose began to increase [2] [h] | Beta-glycosidase specific activity in plant tissue [3, 10] [μmoles PNP/min/mg] | Beta-glycosidase specific activity in plant tissue [3, 11] [μmoles PNP/min/mg] | Beta-glycosidase specific activity in plant tissue ([3]; Frozen transgenic tobacco leaf tissue (−80° C. for 5 days)) [μmoles PNP/min/mg] | enzyme that failed to enter the separating gel, migrating in the stacking gel [4] | pH optimum for maltose hydrolysis [5] | Vmax for p-nitro-phenyl-α-D-glucopyranoside [6] | Km ([6]; read-out: Km for p-nitro-phenyl-α-D-glucopyranoside) [µM] | Alpha-glucosidase specific activity in plant tissue [7, 10] [μmoles PNP/hr/mg] | Alpha-glucosidase specific activity in plant tissue [7, 11] [μmoles PNP/hr/mg] | Alpha-glucosidase specific activity in plant tissue ([7]; Frozen transgenic tobacco leaf tissue) [μmoles PNP/hr/mg] | activity more stable when dried, as compared to fresh tissues ([7]; dried vs fresh tobacco tissue) [times] | activity more stable when frozen, as compared to fresh tissues ([7]; frozen vs fresh tobacco tissue) | Km for glycogen ([8]; 85° C.) [mg/mL] | Vmax for glycogen ([8]; 85° C.) | pH optimum for glycogen hydrolysis ([8]; FIG. 4B) | net rate of glucose formation (conversion of added starch to glucose) [9] [micrograms per hour]
1 | B1 | 0.15 | 28 | 31 | 62 | 67 |  |  |  |  |  |  |  |  |  |  |  |  | 
2 | B2 | 0.11 | 28 |  |  |  | 45 % of the total observed protein | 4.5 | 3.08 μmol of p-nitrophenol/min | 2160 | 27 | 1.6 | 3.6 | 17 | over two | 64.9 | 1.0 μmol of glucose/min | 5.5 | 0.42
